Assay results published in article PMC2705190.

Key:
[1] = biological target: HIV-1 integrase, wild type, full-length (HIV-1); test: SEC; analytical SEC as for IN alone, but 0.3 mg/ml LEDGF IBD pre-incubated with IN on ice for 5 min before injection; Shodex KW403-4F on ice, 750 mM NaCl, 10 mM MgCl2, 20 mM HEPES-NaOH pH 7.0
[2] = biological target: HIV-1 integrase, wild type, full-length (HIV-1); test: SEC; analytical SEC of IN alone (or an equimolar mixture of two mutants); Shodex KW403-4F column on ice, 750 mM NaCl, 10 mM MgCl2, 20 mM HEPES-NaOH pH 7.0; 35 µl IN at 0.6 mg/ml with 25 µM ZnCl2 and 2.8 mM CHAPS
[3] = biological target: HIV-1 integrase, wild type, full-length (HIV-1); test: cross-linking; BS3 (2-0.2 mM), 3 µM IN or 1.5 µM each of two mutants, 0.75 M NaCl, 2 mM MgSO4, 25 µM ZnCl2, 25 mM Hepes-NaOH pH 7.5, 30 min at 18°C; SDS-PAGE, Sypro Orange

Substance	stoichiometry N (per IN tetramer) [1]	stoichiometry N [2]	stoichiometry N [3]
integrase binding domain of lens epithelium derived growth factor (LEDGF IBD) (from UniProt O75475 1-435) (domain or fragment)	4	–	–
HIV-1 integrase, wild type, full-length (enzyme)	–	4	4
